Test results taken from the supplement of paper PMC10567573.

B1: TBX6 (parent)
chain: AFLELPHGSGGSGYPAAPPAVPFA
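Also: lentivirally expressed fusions sorted by FACS into six bins by GFP to DsRed ratio, PSI derived from sequencing read proportions per bin multiplied by bin number.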

Variants of: B1
Test: protein stability index of a GFP-peptide fusion (GPS, HEK-293T) (PSI 1-6); higher = more stable
Details: c terminus: a fixed tail appended
In the case of AFLELPHGSGGSGHPAAPPAVPFA [Y14H], the protein stability index is reported as 2.5. In the case of AFLELPHGSGGSGGPAAPPAVPFA [Y14G], the protein stability index is reported as 3.04. With AFLELPHGSGGSGCPAAPPAVPFA [Y14C] the protein stability index was 2.99. Work on AFLELPHGSGGSGDPAAPPAVPFA [Y14D] yielded a protein stability index of 3.33. Variant AFLELPHGSGGSGKPAAPPAVPFA [Y14K] has a protein stability index of 2.78. For AFLELPHGSGGSGNPAAPPAVPFA [Y14N], the protein stability index was 3.54. In the case of AFLELPHGSGGSGWPAAPPAVPFA [Y14W], the protein stability index is reported as 2.21. For AFLELPHGSGGSGTPAAPPAVPFA [Y14T], the protein stability index was 3.48. AFLELPHGSGGSGMPAAPPAVPFA [Y14M] showed a protein stability index of 2.84. With AFLELPHGSGGSGVPAAPPAVPFA [Y14V] the protein stability index was 2.73. AFLELPHGSGGSGAPAAPPAVPFA [Y14A] gave a protein stability index of 3.1. Variant AFLELPHGSGGSGRPAAPPAVPFA [Y14R] has a protein stability index of 3.03. AFLELPHGSGGSGEPAAPPAVPFA [Y14E] showed a protein stability index of 3.8. Variant AFLELPHGSGGSGIPAAPPAVPFA [Y14I] has a protein stability index of 2.65. AFLELPHGSGGSGLPAAPPAVPFA [Y14L] gave a protein stability index of 2.85. Work on AFLELPHGSGGSGFPAAPPAVPFA [Y14F] yielded a protein stability index of 2.77. Variant AFLELPHGSGGSGQPAAPPAVPFA [Y14Q] has a protein stability index of 3.06. In the case of AFLELPHGSGGSGSPAAPPAVPFA [Y14S], the protein stability index is reported as 3.25. For AFLELPHGSGGSGYPCAPPAVPFA [A16C], the protein stability index was 1.61. Work on AFLELPHGSGGSGYPDAPPAVPFA [A16D] yielded a protein stability index of 2.09. AFLELPHGSGGSGYPEAPPAVPFA [A16E] gave a protein stability index of 3.49. In the case of AFLELPHGSGGSGYPFAPPAVPFA [A16F], the protein stability index is reported as 2.18. For AFLELPHGSGGSTYPAAPPAVPFA [G13T], the protein stability index was 2.52. AFLELPHGSGGSEYPAAPPAVPFA [G13E] showed a protein stability index of 2.61. Work on AFLELPHGSGGSDYPAAPPAVPFA [G13D] yielded a protein stability index of 3.02. With AFLELPHGSGGSMYPAAPPAVPFA [G13M] the protein stability index was 2.07. AFLELPHGSGGSCYPAAPPAVPFA [G13C] showed a protein stability index of 2.83. Variant AFLELPHGSGGSSYPAAPPAVPFA [G13S] has a protein stability index of 2.44. For AFLELPHGSGGSRYPAAPPAVPFA [G13R], the protein stability index was 2.22. For AFLELPHGSGGSIYPAAPPAVPFA [G13I], the protein stability index was 2.51. Work on AFLELPHGSGGSQYPAAPPAVPFA [G13Q] yielded a protein stability index of 2.89. Variant AFLELPHGSGGSFYPAAPPAVPFA [G13F] has a protein stability index of 2.21. AFLELPHGSGGSLYPAAPPAVPFA [G13L] gave a protein stability index of 1.83. For AFLELPHGSGGSAYPAAPPAVPFA [G13A], the protein stability index was 2.87. AFLELPHGSGGSHYPAAPPAVPFA [G13H] gave a protein stability index of 2.23. With AFLELPHGSGGSNYPAAPPAVPFA [G13N] the protein stability index was 2.4. AFLELPHGSGGSYYPAAPPAVPFA [G13Y] gave a protein stability index of 1.66. Variant AFLELPHGSGGSVYPAAPPAVPFA [G13V] has a protein stability index of 2.42. In the case of AFLELPHGSGGSWYPAAPPAVPFA [G13W], the protein stability index is reported as 1.73. For AFLELPHGSGGSKYPAAPPAVPFA [G13K], the protein stability index was 2.58. For AFLELPHGSGWSGYPAAPPAVPFA [G11W], the protein stability index was 2.32. Variant AFLELPHGSGQSGYPAAPPAVPFA [G11Q] has a protein stability index of 2.2. For AFLELPHGSGYSGYPAAPPAVPFA [G11Y], the protein stability index was 1.95. AFLELPHGSGSSGYPAAPPAVPFA [G11S] gave a protein stability index of 2.7. AFLELPHGSGISGYPAAPPAVPFA [G11I] showed a protein stability index of 2.23. In the case of AFLELPHGSGHSGYPAAPPAVPFA [G11H], the protein stability index is reported as 2.15. In the case of AFLELPHGSGVSGYPAAPPAVPFA [G11V], the protein stability index is reported as 2.12. In the case of AFLELPHGSGMSGYPAAPPAVPFA [G11M], the protein stability index is reported as 2.01. In the case of AFLELPHGSGFSGYPAAPPAVPFA [G11F], the protein stability index is reported as 2.19. In the case of AFLELPHGSGKSGYPAAPPAVPFA [G11K], the protein stability index is reported as 2.07. For AFLELPHGSGLSGYPAAPPAVPFA [G11L], the protein stability index was 1.93. With AFLELPHGSGNSGYPAAPPAVPFA [G11N] the protein stability index was 2.07. In the case of AFLELPHGSGTSGYPAAPPAVPFA [G11T], the protein stability index is reported as 2.11. Work on AFLELPHGSGESGYPAAPPAVPFA [G11E] yielded a protein stability index of 2.77. AFLELPHGSGPSGYPAAPPAVPFA [G11P] showed a protein stability index of 2.28. Variant AFLELPHGSGRSGYPAAPPAVPFA [G11R] has a protein stability index of 2.3. Work on AFLELPHGSGGHGYPAAPPAVPFA [S12H] yielded a protein stability index of 2.22. AFLELPHGSGGVGYPAAPPAVPFA [S12V] gave a protein stability index of 2.55. Work on AFLELPHGSGGRGYPAAPPAVPFA [S12R] yielded a protein stability index of 2.27. AFLELPHGSGGFGYPAAPPAVPFA [S12F] showed a protein stability index of 1.91. Variant AFLELPHGSGGQGYPAAPPAVPFA [S12Q] has a protein stability index of 2.29. For AFLELPHGSGGLGYPAAPPAVPFA [S12L], the protein stability index was 2.18. Variant AFLELPHGSGGCGYPAAPPAVPFA [S12C] has a protein stability index of 2.12. With AFLELPHGSGGIGYPAAPPAVPFA [S12I] the protein stability index was 2.28. For AFLELPHGSGGKGYPAAPPAVPFA [S12K], the protein stability index was 2.17. With AFLELPHGSGGEGYPAAPPAVPFA [S12E] the protein stability index was 2.74. In the case of AFLELPHGSGGGGYPAAPPAVPFA [S12G], the protein stability index is reported as 2.31. For AFLELPHGSGGWGYPAAPPAVPFA [S12W], the protein stability index was 2.55. With AFLELPHGSGGYGYPAAPPAVPFA [S12Y] the protein stability index was 1.63. AFLELPHGSGGDGYPAAPPAVPFA [S12D] showed a protein stability index of 3. With AFLELPHGSGGTGYPAAPPAVPFA [S12T] the protein stability index was 2.4. With AFLELPHGSGGAGYPAAPPAVPFA [S12A] the protein stability index was 2.33. Variant AFLELPHGSGGNGYPAAPPAVPFA [S12N] has a protein stability index of 2.62. Work on AFLELPHGSGGPGYPAAPPAVPFA [S12P] yielded a protein stability index of 2.08. With AFLELPHGSGGMGYPAAPPAVPFA [S12M] the protein stability index was 2. AFLELPHGSGGSGYGAAPPAVPFA [P15G] gave a protein stability index of 2.21. In the case of AFLELPHGSGGSGYLAAPPAVPFA [P15L], the protein stability index is reported as 1.94. With AFLELPHGSGGSGYEAAPPAVPFA [P15E] the protein stability index was 3.03. AFLELPHGSGGSGYNAAPPAVPFA [P15N] gave a protein stability index of 2.48. Variant AFLELPHGSGGSGYAAAPPAVPFA [P15A] has a protein stability index of 2.27. AFLELPHGSGGSGYWAAPPAVPFA [P15W] gave a protein stability index of 1.99. AFLELPHGSGGSGYVAAPPAVPFA [P15V] gave a protein stability index of 2.08. Variant AFLELPHGSGGSGYFAAPPAVPFA [P15F] has a protein stability index of 1.54. Variant AFLELPHGSGGSGYYAAPPAVPFA [P15Y] has a protein stability index of 2.23. In the case of AFLELPHGSGGSGYTAAPPAVPFA [P15T], the protein stability index is reported as 2.56. Variant AFLELPHGSGGSGYDAAPPAVPFA [P15D] has a protein stability index of 2.81. AFLELPHGSGGSGYRAAPPAVPFA [P15R] gave a protein stability index of 1.88. AFLELPHGSGGSGYKAAPPAVPFA [P15K] showed a protein stability index of 2.15. In the case of AFLELPHGSGGSGYHAAPPAVPFA [P15H], the protein stability index is reported as 1.93. With AFLELPHGSGGSGYIAAPPAVPFA [P15I] the protein stability index was 2.01. Work on AFLELPHGSGGSGYSAAPPAVPFA [P15S] yielded a protein stability index of 2.38. With AFLELPHGSGGSGYCAAPPAVPFA [P15C] the protein stability index was 1.8. Variant AFLELPHGSGGSGYQAAPPAVPFA [P15Q] has a protein stability index of 2.01. Work on AFLELPHGSGGSGYMAAPPAVPFA [P15M] yielded a protein stability index of 1.77.
